Experimental findings from IntAct's records for PubMed 17280616 are described below.

B1: Maternal embryonic leucine zipper kinase (Homo sapiens), Q14680 (parent)
chain: MKDYDELLKYYELHETIGTGGFAKVKLACHILTGEMVAIKIMDKNTLGSDLPRIKTEIEALKNLRHQHICQLYHVLETANKIFMVLEYCPGGELFDYIISQDRLSEEETRVVFRQIVSAVAYVHSQGYAHRDLKPENLLFDEYHKLKLIDFGLCAKPKGNKDYHLQTCCGSLAYAAPELIQGKSYLGSEADVWSMGILLYVLMCGFLPFDDDNVMALYKKIMRGKYDVPKWLSPSSILLLQQMLQVDPKKRISMKNLLNHPWIMQDYNYPVEWQSKNPFIHLDDDCVTELSVHHRNNRQTMEDLISLWQYDHLTATYLLLLAKKARGKPVRLRLSSFSCGQASATPFTDIKSNNWSLEDVTASDKNYVAGLIDYDWCEDDLSTGAATPRTSQFTKYWTESNGVESKSLTPALCRTPANKLKNKENVYTPKSAVKNEEYFMFPEPKTPVNKNQHKREILTTPNRYTTPSKARNQCLKETPIKIPVNSTGTDKLMTGVISPERRCRSVELDLNQAHMEETPKRKGAKVFGSLERGLDKVITVLTRSKRKGSARDGPRRLKLHYNVTTTRLVNPDQLLNEIMSILPKKHVDFVQKGYTLKCQTQSDFGKVTMQFELEVCQLQKPDVVGIRRQRLKGDAWVYKRLVEDILSSCKV

In the test the parent is B1. Particulars: with BCL2L14, Q9BZR8.
Sequence of BCL2L14, Q9BZR8 (Q9BZR8 whole entry): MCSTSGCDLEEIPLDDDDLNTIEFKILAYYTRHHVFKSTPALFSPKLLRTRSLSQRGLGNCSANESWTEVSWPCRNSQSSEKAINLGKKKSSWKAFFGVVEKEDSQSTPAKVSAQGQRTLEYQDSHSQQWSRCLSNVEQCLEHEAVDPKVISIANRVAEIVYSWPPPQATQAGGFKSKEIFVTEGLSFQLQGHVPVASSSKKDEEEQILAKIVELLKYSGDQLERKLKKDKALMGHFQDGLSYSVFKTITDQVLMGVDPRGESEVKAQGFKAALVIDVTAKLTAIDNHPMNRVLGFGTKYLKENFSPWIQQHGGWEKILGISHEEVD
As to D150A, the “effect of a mutation on the interaction” value was “disrupting interaction”.
